In PMC5026585 (ACS chemical biology, 2016):
Where a SMILES comes first, the peptide text is derived from it. [ ]: non-standard residue; d: D form. The star is where a group is joined. Benzoyl(4-tBu) = CC(C)(C)c1ccc(C(=O)*)cc1; Lys(Et2) = CCN(CC)CCCC[C@H](N)C(=O)O

Key:
CDYL chromodomains = test: selectivity profile of UNC3866, CDYL chromodomains; format: binding; details: reduced potency relative to CBX7 and CBX4
[1] = molecular target: PRC1 chromodomains (CBX2, -4, -6, -7, and -8); details: cited from earlier work
chromodomain of MPP8 = test: selectivity profile of UNC3866, MPP8; format: binding; details: reduced potency relative to CBX7 and CBX4
[2] = molecular target: CDYL2 chromodomain (Chromodomain Y-like protein 2); test: fluorescence polarisation
[3] = molecular target: CBX7 chromodomain (chromobox protein homolog 7); test: fluorescence polarisation
[4] = molecular target: MPP8 chromodomain (M-phase phosphoprotein 8); test: fluorescence polarisation
[5] = molecular target: CDYL chromodomain (Chromodomain Y-like protein); test: fluorescence polarisation
[6] = molecular target: CBX8 chromodomain (chromobox protein homolog 8); test: fluorescence polarisation
[7] = molecular target: CDY1 chromodomain (Testis-specific chromodomain protein Y 1); test: fluorescence polarisation

Kd [2] | Kd [3] | Kd [4] | Kd [5] | Kd [6] | Kd [7] | Compound | selectivity, CDYL chromodomains relative to CBX7 and CBX4 (CDYL chromodomains) | Kd [1] | selectivity, MPP8 relative to CBX7 and CBX4 (chromodomain of MPP8)
 |  |  |  |  |  | CCN(CC)CCCC[C@H](NC(=O)[C@H](CC(C)C)NC(=O)[C@H](C)NC(=O)[C@H](Cc1ccccc1)NC(=O)c1ccc(C(C)(C)C)cc1)C(=O)N[C@@H](CO)C(=O)OC [UNC3866] ({Benzoyl(4-tBu)}-FAL[Lys(Et2)]S-OMe) | ~8 fold | ~0.1 µM | ~30 fold
0.71 µM | 0.093 µM | 4.79 µM | 1.01 µM | 0.666 µM | 6.41 µM | UNC3866-FAM (peptide) |  |  | 
